Measurements from patent publication US20220275075A1 (PARACRINE THERAPEUTICS, published 2022).

B2: monoclonal antibody 6B3 (antibody, mouse IgG2a, V domains shown)
VH: QVQLQQSGVEVARPGASVKLSCKASGYTFRSYGITWVRQRTGQGLEWIGEIYPRSGKTYYNEKFKGKATLTADTSSSTVYMELRSLTSEDSAVYFCAREGYGYDGGYFDYWGQGTTLTVSS
VL: DIVMTQSPSSLAMSVGQKVTMSCKSSQSLLNSRNQKNYLAWYQQKPGQSPKLLVYFASTRESGVPDRFTGSGSGTDFTLTISSVQAEDLAVYYCQQHYSTPLTFGAGTKLELKR
notes: The variable domains are identical to those of 19C7; also called mu6B3; murine 6B3
B7: Peptide 3 (SVSIREELKRTDTIFWPGC) (peptide)
peptide: SVSIREELKRTDTIFWPGC
notes: Synthetic peptide; also called PDGFC peptide 3

What was measured:
[1] = biological target: T1, recombinant human PDGF-BB (human, UniProt P01127 82-190); experiment: ELISA on coated PDGF-AA, -BB, -CC, -DD and BSA
T1 construct: Bought; The construct is not described; also called PB
T1 sequence (P01127 82-190): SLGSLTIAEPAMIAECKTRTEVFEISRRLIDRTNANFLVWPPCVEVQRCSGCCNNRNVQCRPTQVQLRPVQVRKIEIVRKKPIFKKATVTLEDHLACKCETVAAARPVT

[2] = biological target: T2, recombinant human PDGF-AA (human, UniProt P04085 87-211); experiment: ELISA on coated PDGF-AA, -BB, -CC, -DD and BSA
T2 construct: Bought; The construct is not described

[3] = biological target: T3, recombinant human PDGF-CC active core domain protein with terminal histidine tag (human, UniProt Q9NRA1 231-345); experiment: ELISA on coated PDGF-AA, -BB, -CC, -DD and BSA
T3 construct: Made in baculovirus-infected Sf9 cells; The position of the tag in the chain is not known; also called RhPC; RhPCc; not shown: terminal histidine tag
T3 sequence (Q9NRA1 231-345 limits assumed): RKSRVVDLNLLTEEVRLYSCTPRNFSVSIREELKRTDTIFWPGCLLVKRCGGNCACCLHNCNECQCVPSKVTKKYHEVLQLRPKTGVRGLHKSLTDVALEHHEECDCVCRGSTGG

[4] = biological target: T4, recombinant human PDGF-DD (human, UniProt Q9GZP0 250-370, limits assumed); experiment: ELISA on coated PDGF-AA, -BB, -CC, -DD and BSA
T4 construct: The construct is not described; also called PDGF-D polypeptide; PDGF-DD (R&D)
T4 sequence (Q9GZP0 250-370 limits assumed): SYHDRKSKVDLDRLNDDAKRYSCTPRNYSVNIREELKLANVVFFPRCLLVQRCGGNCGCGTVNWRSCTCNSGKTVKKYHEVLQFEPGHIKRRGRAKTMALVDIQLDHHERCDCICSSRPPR

[5] = biological target: T5, overlapping PDGF-C peptide EELKRTDTIFC (human); experiment: Biacore, 6B3 at 20.8 nM-667 nM over thiol-immobilised peptide
T5 construct: Synthesised with a C-terminal cysteine for thiol immobilisation
T5 peptide: EELKRTDTIFC

[6] = biological target: T6, PDGF-C peptide epitope SVSIREELKC (human); experiment: as above
T6 construct: Synthesised with a C-terminal cysteine for thiol immobilisation on the sensor chip
T6 peptide: SVSIREELKC

RTDTIFWPGC = biological target: T7, RTDTIFWPGC; experiment: as above
T7 peptide: RTDTIFWPGC

[7] = biological target: B7; experiment: SPR, 6B3 (20.8 nM-667 nM) over thiol-immobilised peptide 3
Method: Peptide 3 was immobilized on channel 4 of the carboxymethyldextran-coated sensor chip using thiol chemistry. Briefly, the chip was activated on channel 4 using standard amine coupling chemistry (0.05M NHS/0.2M EDC) followed by 80 mM (2-(2-pyridinyldithio)ethane amine (PDEA) in 1M borate PH 8.2. Peptide 3 (100 nM in 10 mM sodium acetate pH 4.5) was conjugated via its C-terminal cysteine to PDEA. The chip was then blocked using 40 mM L-cysteine in 10 mM sodium acetate pH 4.0 and 1 M ethanolamine pH 8.2. A blank derivatised channel was used as the control channel.
Samples of antibody 6B3 (20.8 nM-667 nM) were injected (30 μL at 10 μL/min) in HBS buffer over immobilized peptide 3. Specific binding was observed as compared to the blank channel and then investigated further with smaller overlapping peptide sequences (data not shown).

[8] = biological target: T1, recombinant human PDGF-BB; experiment: ELISA, PDGF ligands coated at 1 µg/ml, purified mAb at 1.5 µg/ml
Method: (§1) Following immunisation of mice and splenic fusions by standard procedures, the supernatant of 16 hybridomas were initially assessed for PDGF-CC binding specificity by ELISA and Western analysis. A sensitive ELISA assay was employed to explore this using commercially available PDGF-AA, PDGF-BB, PDGF-DD and recombinant PDGF-CC. Specifically, antigen immobilization of purified recombinant human PDGF ligands, PDGF-AA, BB, CC and DD diluted in 100 mM NaHCO₃ at the concentration of 1μg/ml, was performed overnight at +4° C. Thereafter, all incubations were done at room temperature 1.5-2 hours and washes carried out with PBS. In triplicate, hybridoma supernatants were applied at a dilution of 1:2 in PBS/1% bovine serum albumin (BSA), or purified monoclonal antibody (mAbs) was added (1.5μg/ml in 3% BSA). A rabbit polyclonal IgG—purified antibody was used as positive control (4 μg/ml). Binding was detected with an anti—mouse (or anti—rabbit in control) alkaline phosphatase—conjugated secondary antibody and visualized by incubation with alkaline phosphatase yellow (pNPP) liquid substrate system for ELISA (Sigma—Aldrich). Absorbance was read at 405 nm.

[9] = biological target: T2, recombinant human PDGF-AA; experiment: as above
Method: as §1

[10] = biological target: T4, recombinant human PDGF-DD; experiment: as above
Method: as §1

[11] = biological target: T8, corresponding PDGF-D peptide SVNIREELKC (human); experiment: Biacore, 6B3 over thiol-immobilised peptide
T8 construct: Synthesised with a C-terminal cysteine; also called alternate peptide
T8 peptide: SVNIREELKC
Method: Samples of 6B3 antibody (1.334 μM) was injected (30 μL at 10 μL/min) in HBS buffer over the immobilized peptides.

[12] = biological target: T9, mouse PDGF-C core protein (mouse, UniProt Q8CI19 231-345, limits assumed); experiment: immunoblot of COS-1 supernatant with mouse PDGF-C core, probed with purified antibody
T9 construct: also called COSmPCcoremedia
T9 sequence (Q8CI19 231-345 limits assumed): as the sequence (Q9NRA1 231-345 limits assumed) above, with R1K, R4K, D7N, T12K, R16K, S69R, R88K, S112N, T113A counted along it
Method: To produce the mouse PDGF-CC protein, COS-1 cells were transfected with mouse PDGF-C core plasmid constructed in expression vector pCDNA3.1 (Invitrogen). Transfection using lipofectamine plus reagent (Invitrogen) was performed according to the manufacturer's instructions. Transfected cells were cultured in serum free media. At 24 hours post-transfection, culture supernatant (COSmPCcoremedia) was collected and 30 μl sample was loaded on SDS-PAGE together with human PDGF-C core protein (0.1 μg RhPcc) and proteins separated by SDS-PAGE. Protein was then isolated using standard means.

[13] = biological target: T3, recombinant human PDGF-CC active core …; experiment: SPR, BIAcore 2000, His-tagged PDGF-CC on Ni-NTA chip, antibody as analyte, 1:1 Langmuir fit (apparent)
Method: Biosensor analyses were performed on a BIAcore 2000 biosensor using an NTA sensor chip. Briefly, a NTA sensor chip was loaded with Ni 2+ and used to immobilize histidine tagged PDGF-CC ligand. The PDGF-CC antibodies were passed over the chip at varying concentrations in order to determine apparent affinity (KD). Chips were regenerated with EGTA. The chip was re-equilibrated by washing with HBS (containing no EDTA) before further analyses. Using BIAevaluation software, a 1:1 Langmuir binding analysis model was used to estimate the apparent association (ka) and disassociation (kd) rate constants for each set of antibody experiments.

[14] = biological target: T4, recombinant human PDGF-DD; experiment: immunoblot of recombinant PDGF-D after SDS-PAGE, probed with hybridoma supernatant, exposure 10 seconds
monoclonal antibody 6B3 = biological target: B2; experiment: Biacore competition: 6B3 (333 nM) with soluble peptide injected over immobilised PDGF-CC core protein, maximum response plotted
Method: Biosensor analyses were performed on a BlAcore 2000 biosensor using a carboxymethyldextran-coated sensor chip (Xantec CMD). The chip was derivatised on channel 2 with the PDGF-CC core antigen (60 μg/mL) using standard amine coupling chemistry (0.05M NHS/0.2M EDC). Channel 1 was derivatised with ethanolamine and used as a blank control channel for correction of refractive index effects.
After the injection phase, the dissociation was monitored by flowing HBS buffer over the chip surface for 360s. Bound antibody was eluted and the chip surface regenerated between samples by injection of 30 μl of 10 mM Glycine pH 2.0

B1: humanized anti-PDGF-CC antibody 6B3 (hu6B3), heavy chain R30 (antibody, V domains shown)
VH: QVQLVQSGAEVKKPGASVKVSCKASGYTFRSYGITWVRQATGQGLEWMGEIYPRSGKTGYAQKFQGRVTMTADTSTSTVYMELRSLRSEDSAVYFCAREGYGYDGGYFDYWGQGTLVTVSS
VL: DIVMTQSPSSLAMSVGERATINCKSSQSLLNSRNQKNYLAWYQQKPGQPPKLLIYFASTRESGVPDRFSGSGSGTDFTLTISSVQAEDVAVYYCQQHYSTPLTFGGGTKVELKR
notes: Human IgG1 kappa as the final form; also called hu6B3 R; hu6B3 R30
B1: no binding [1]; no binding [2]; binds [3]. B1: no binding [4].

B2: no binding (tested: 667 nM) [5]; binds [6]; binds (RTDTIFWPGC). B2: binds [7]; no binding (tested: 1.5 µg/ml) [8]; no binding (tested: 1.5 µg/ml) [9]. B2: no binding (tested: 1.5 µg/ml) [10]; no binding (tested: 1.334 µM (legend; paragraph 184 says 667 nM)) [11]; no binding [12]. For the same binder, the Kd [13] was 0.9 nM, the koff [13] was 0.0015 s⁻¹ and the kon [13] was 1.8e+06 M⁻¹ s⁻¹.

B3: monoclonal antibody 19C7 (antibody, mouse IgG2a, V domains shown)
VH: QVQLQQSGVEVARPGASVKLSCKASGYTFRSYGITWVRQRTGQGLEWIGEIYPRSGKTYYNEKFKGKATLTADTSSSTVYMELRSLTSEDSAVYFCAREGYGYDGGYFDYWGQGTTLTVSS
VL: DIVMTQSPSSLAMSVGQKVTMSCKSSQSLLNSRNQKNYLAWYQQKPGQSPKLLVYFASTRESGVPDRFTGSGSGTDFTLTISSVQAEDLAVYYCQQHYSTPLTFGAGTKLELKR
notes: Murine IgG2a, kappa light chain
B3: no binding (tested: 1.5 µg/ml) [8]; no binding (tested: 1.5 µg/ml) [9]; no binding (tested: 1.5 µg/ml) [10]. For the same binder, the Kd [13] was 0.7 nM, the koff [13] was 0.0016 s⁻¹ and the kon [13] was 2.2e+06 M⁻¹ s⁻¹.

B4: monoclonal antibody 11F5 (antibody, mouse IgG2a, V domains shown)
VH: QVQLQQSGAELARPGASVKLSCKASGYIFISYGISWVKQRTGQGLEWIGEIYPRSGKTYYNEKFKDKAALTADKSSSIAYMELRSLTSEDSAVYFCAREGYGYDGGYFDYWGQGTILTVSS
VL: DIVMTQSPSSLAMSVGQKVAVSCKSSQSLLNSSNQKNYLAWYQQKPGQSPKLLVYFASTRDSGVPDRFTGSGSGTDFTLTISSVQAEDLAVYYCQQHYSTPLTFGAGTKLELKR
notes: as for B3
B4: no binding (tested: 1.5 µg/ml) [8]; no binding (tested: 1.5 µg/ml) [9]; no binding [14]. It also gave a Kd [13] of 1.05 nM, a koff [13] of 0.00058 s⁻¹ and a kon [13] of 640000 M⁻¹ s⁻¹.

B5: chimeric anti-PDGF-CC antibody 6B3 (ch6B3) (antibody, V domains shown)
VH: QVQLQQSGVEVARPGASVKLSCKASGYTFGSYGITWVRQRTGQGLEWIGEIYPRSGKTYYNEKFKGKATLTADTSSSTVYMELRSLTSEDSAVYFCAREGYGYDGGYFDYWGQGTTLTVSS
VL: DIVMTQSPSSLAMSVGQKVTMSCKSSQSLLNSRNQKNYLAWYQQKPGQSPKLLVYFASTRESGVPDRFTGSGSGTDFTLTISSVQAEDLAVYYCQQHYSTPLTFGAGTKLELKR
notes: also called chimeric 6B3; mouse-human chimeric antibody 6B3
B5 gave a Kd [13] of 0.7 nM, a koff [13] of 0.00041 s⁻¹ and a kon [13] of 600000 M⁻¹ s⁻¹. B5: no binding [1]; no binding [2]; no binding [4].

B6: monoclonal antibody 12F5 (antibody, mouse IgG2a, V domains shown)
VH: EVKLEESGGGLVQPGGSRELSCEGSGFTFSGFWMSWVRQTPGKTLEWIGDINSDGSAIIYAPSIKDRFTIFRDNDKSTLYLQMNNVRSEDTATYFCMRWGYYGSNYFDYWGQGTTLTVSS
VL: DVVMTQTPLSLPVSLGDQASISCRSSQSIVHSNGNTYLHWYLQKPGQSPKLLIYRVSNRFSGVPDRFSGSGSGTDFTLKISRVEAEDMGVYYCFQGTHVPFTFGSGTKLEIKR
notes: Murine IgG2a, kappa light chain; also called anti-PDGF-CC mAb 12F5
B6: no binding (tested: 1.5 µg/ml) [8]; no binding (tested: 1.5 µg/ml) [9]; no binding (tested: 1.5 µg/ml) [10]. For the same binder, the Kd [13] was 2.2 nM, the koff [13] was 0.0002 s⁻¹ and the kon [13] was 90000 M⁻¹ s⁻¹.

B7: binds (monoclonal antibody 6B3).
